Source: the RNAGym collection of RNA variant scans (doi:10.1073/pnas.2313332121)

B1: TPR t1 (parent)
chain: GACCAAUCUGCCCUCAGAGCUCGAGAACAUCUUCGGAUGCAGAGGAGGCAGGCUUCGGUGGCGCGAUAGCGCCAACGUCCUCAACCUCCAAUGCAUCCCACCACAUGAUGAUGCCUGAAGAGCCUUGGUUUUUUG

Variants of: B1
Assay: polymerase ribozyme fitness, log enrichment relative to wild type (log ratio); higher = more active; in vitro selection for triplet polymerase activity
Summary of the method: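 Fitness is a logarithmic measure of how a genotype enriched relative to the wild type, with replicate averages weighted by inverse variance. The logarithm uses base 2, and enrichment came from Illumina sequencing of input and output libraries. Those libraries were PCR-built, transcribed mutants of each subunit of a heterodimeric triplet polymerase ribozyme, passed through one triplicate in vitro selection round that included frozen incubation at −7 °C, gel excision of extended constructs and streptavidin-bead capture. Genotypes were kept only if they had ≥10 input reads and ≥1 read per output.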

Variant | polymerase ribozyme fitness (log ratio)
G48U C104U | -0.515
G48U C72U C76U A105U | -3.61
G48U A95U A105U U125A | -4.37
G48U U55G G69A | -2.77
C49A G128C | -3.42
C49U C62U A118U | -0.00141
C49A C70G U130C | -3.2
G48U C72A C97G | -5.25
C49G G51U U54G | -2.34
A50C C64U G77A | -0.681
G48U A84G U116C | -1.79
G48U G57A C62U U78C C114A U133G | -3.01
C49A G117A | -1.89
C49U G60A C97G | -5.67
C49G G58C | -3.36
C49U C76U U81A C88A | -3.72
C49G U59G | -0.612
C49A G52U A105U | -3.88
A50C A66U C72U U81G C85A | -3.05
A50G C53G G61A U116A G117A | -3.29
C49U G69U A121C | 1.51

Variant | polymerase ribozyme fitness (log ratio)
G48U C53U G93C | -1.66
C49G G69U U125A G128A | -3.1
G48C C104U | -0.793
C49G G69U | -0.396
C49A C124A | 1.63
C49A C82U G93C C99U G122U | -3.82
A50C G77U C115G | -1.98
G48A U59A | -0.703
G48U C56U C70U A84G A91U | -4.84
G48C G60A G93A | -0.836
G48C A74C | -0.603
C49U C56U U109G | -5.37
G48C G63A G113U C123A | -5.64
A50G G60A | 0.351
G48U C49U A91C | -2.49
A50C G60U C97A | -5.38
G48U G61U U112C | 1.56
C49U C56U | -0.758
A50C A90C U133G | -1.46
G48C C101A G117A | -2.54
C49A G61U U81C G128U | -4.52

Variant | polymerase ribozyme fitness (log ratio)
A50U A91C | -3.23
G48C G77U C89U C123U | -0.348
C49U C79G C104A | -5.16
A50C G93U U112G | -2.03
C49A U55G A74C U81G A90G G117U | -2.62
C49U C124U U132A | 0.615
C49U C53A A111C | -0.429
C49U C85A | -2.47
A50C G107U | -5.95
A50C G107A | -6.09
C49G C53A C64U | -0.365
C49A G51U C56A | -2.24
A50U A95C | -1.9
A50C C62A C79U | -1.8
C49A C102G C114U C115G | -6.27
C49A A90C A103U C114A | -7.25
C49U G51A | -1.4
C49A U78C | -0.24
C49U U81A C89A | -4.05
G48U C86A C115U G120C | -2.47
A50C C104U G110A A118U | -0.437

Variant | polymerase ribozyme fitness (log ratio)
G48C C79G | -4.27
G48C U87A | -1.01
C49G U59G C62G C72U | -4.88
A50G C62U G69U C80A | -3.77
C49U G51A C88A | -3.64
G48U G69A U87A | -6.61
G48A U87A U96A | -1.88
C49G C115G G135U | -3.4
G48U G52U C98U G117U | -6.54
C49A G57U G60U G113A | -1.65
C49G C124G | 1.58
C49U C72U C115U C123G | -2.4
A50U G52C G58C C72U C88U | -4.47
C49U G135C | -0.277
C49A C56A U131C U133A | -0.929
A50U C76A G77A | -1.53
C49A G63A | -0.725
A50U C72G | -1.6
A50U C72U | -1.18
G48C G52U G60A U109A G110U | -6.29
C49A G69C | -1.8
